According to patent US6372467:
Where a chain is given by its changes, count along the chain named. Numbers in names are those of the source.

B1: hemagglutinin (HA)-tagged p54^S6K (protein)
chain: MAAVFDLDLETEEGSEGEGEPELSPADACPLAELRAAGLEPVGHYEEVELTETSVNVGPERIGPHCFELLRVLGKGGYGKVFQVRKVQGTNLGKIYAMKVLRKAKIVRNAKDTAHTRAERNILESVKHPFIVELAYAFQTGGKLYLILECLSGGELFTHLEREGIFLEDTACFYLAEITLALGHLHSQGIIYRDLKPENIMLSSQGHIKLTDFGLCKESIHEGAVTHTFCGTIEYMAPEILVRSGHNRAVDWWSLGALMYDMLTGSPPFTAENRKKTMDKIIRGKLALPPYLTPDARDLVKKFLKRNPSQRIGGGPGDAADVQRHPFFRHMNWDDLLAWRVDPPFRPCLQSEEDVSQFDTRFTRQTPVDSPDDTALSESANQAFLGFTYVAPSVLDSIKEGFSFQPKLRSPRRLNSSPRVPVSPLKFSPFEGFRPSPSLPEPTELPLPPLLPPPPPSTTAPLPIRPPSGTKKSKRGRGRPGR
B2: HA-p54^S6K KR (protein)
chain: B1 chain with K99R

Experiments:
[1] = biological target: Glutathione-S-transferase (GST)-tagged S6

| Protein | in vitro kinase assay (screen of substrates) (histone H2B) | in vitro kinase assay (phosphorylation of GST-S6 by anti-HA immunoprecipitates) [1] |
| --- | --- | --- |
| B1 | p54^S6K can phosphorylate both S6 and histone H2B | p54^S6K kinase activity towards S6 was stimulated by serum treatment of the cells |
| B2 | – | The KR mutation of p54^S6K abolished the kinase activity in an in vitro kinase assay |
